Reference: paper PMC7142922

Target: T1, TyrR (Escherichia coli DH5alpha) (UniProt P07604)
T1 sequence: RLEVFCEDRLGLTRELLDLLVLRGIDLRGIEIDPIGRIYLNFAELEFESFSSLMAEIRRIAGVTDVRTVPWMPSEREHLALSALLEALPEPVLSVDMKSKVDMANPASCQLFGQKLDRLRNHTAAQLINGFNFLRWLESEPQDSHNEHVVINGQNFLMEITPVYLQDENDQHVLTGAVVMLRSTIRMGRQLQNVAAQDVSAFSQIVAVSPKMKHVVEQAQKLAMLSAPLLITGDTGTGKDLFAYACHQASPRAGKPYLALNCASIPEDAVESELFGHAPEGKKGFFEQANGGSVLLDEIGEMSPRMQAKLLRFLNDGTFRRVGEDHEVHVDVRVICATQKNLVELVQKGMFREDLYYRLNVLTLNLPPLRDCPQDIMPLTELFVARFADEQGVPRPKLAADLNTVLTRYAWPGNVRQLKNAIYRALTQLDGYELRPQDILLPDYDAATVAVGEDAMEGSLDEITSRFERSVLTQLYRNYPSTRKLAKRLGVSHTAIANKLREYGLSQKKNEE
Test: EMSA
Settings: TyrR EMSA: 50 mM Tris-HCl pH 7.8, 50 mM NaCl, 3 mM Mg acetate, 0.1 mM EDTA, 0.1 mM DTT, 25 ug/mL BSA, 0.1 mM Phe, 0.1 mM ATP, ~15 nM DNA, 37 C 30 min, 2% …

## CTGCAGCACTATCACTCTTTTGTCTTGGTAAGAATAATGGTATGTGACTGCGAATGCACCTGCTTTGTGCAGGGGTGATGACGAGTTGCGTAAAAAGAAAGCACTTGTAAACCCTTTTAGCATTACTCACTTTATTTTGCATAGCATGTGATGTGCGGAGAAATCTTAGCAGTGAGCAGACCAATAAATAGAATATTCAGAACGGTGTTATTTTATTGACATCGTCAGCGGGGGAGGCGTTTAATTTATATTCGGATGTCGTAAAGCTTAA (double strand) [deltaTB fragment without TyrR boxes (274 bp)]
  binding: no binding
